Laboratory results from US20230265171A1.

Key:
Assay in all cases: ELISA, antigen coated at 2 µg/mL
[1] = target: CoV-2 RBD (N354D, D364Y) (SARS-CoV-2) (UniProt P0DTC2)
[2] = target: CoV-2 S (R683A, R685A) (SARS-CoV-2) (UniProt P0DTC2)
[3] = target: CoV-2 S (D614G) (SARS-CoV-2) (UniProt P0DTC2)
[4] = target: CoV-2 RBD (V367F) (SARS-CoV-2) (UniProt P0DTC2)
[5] = target: CoV-2 RBD (W436R) (SARS-CoV-2) (UniProt P0DTC2)
[6] = target: CoV-2 RBD (N354D) (SARS-CoV-2) (UniProt P0DTC2)

Substance	EC50 [1] [µg/mL]	EC50 [2] [µg/mL]	EC50 [3] [µg/mL]	EC50 [4] [µg/mL]	EC50 [5] [µg/mL]	EC50 [6] [µg/mL]
IVIG (Gamunex)	1320	2840	1330	1130	1240	1240
SARS CoV-2 mAb [SAD-S35] (antibody)	0.05	0.05	0.03	0.04	0.04	0.04
